Values belong to the binder of their own block, whether it stands above or below them.
How the values were obtained:
Experiment in all cases: holdup assay
Set-up in all cases: key: below the threshold = too weak to quantify, mostly under pKd 3.1 to 4
[1] = target: T1, MPP7, Q5T2T1
T1 sequence (Q5T2T1 134-230, limits assumed, looked up): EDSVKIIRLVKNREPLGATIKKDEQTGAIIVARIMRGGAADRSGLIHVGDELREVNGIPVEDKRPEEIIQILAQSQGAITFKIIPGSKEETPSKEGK

[2] = target: GORASP1, Q9BQQ3
[3] = target: T2, SNTB1, Q13884
T2 sequence (Q13884 107-205, limits assumed, looked up): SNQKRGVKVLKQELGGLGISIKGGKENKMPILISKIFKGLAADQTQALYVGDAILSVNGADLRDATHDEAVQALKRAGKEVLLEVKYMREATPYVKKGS

[4] = target: DLG2_3, Q15700
[5] = target: T3, LIN7B, Q9HAP6
T3 sequence (Q9HAP6 88-185, limits assumed, looked up): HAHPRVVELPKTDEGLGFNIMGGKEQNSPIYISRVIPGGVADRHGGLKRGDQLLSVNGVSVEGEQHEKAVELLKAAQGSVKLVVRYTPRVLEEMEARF

[6] = target: DLG1_1, Q12959
[7] = target: Inadl_5, Q8NI35
Chain of Inadl_5, Q8NI35 (Q8NI35 673-780): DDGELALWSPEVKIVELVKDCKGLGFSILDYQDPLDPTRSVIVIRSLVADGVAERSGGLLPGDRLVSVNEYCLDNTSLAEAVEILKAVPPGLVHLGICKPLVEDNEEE

[8] = target: PICK1, Q9NRD5
Chain of PICK1, Q9NRD5 (Q9NRD5 17-115): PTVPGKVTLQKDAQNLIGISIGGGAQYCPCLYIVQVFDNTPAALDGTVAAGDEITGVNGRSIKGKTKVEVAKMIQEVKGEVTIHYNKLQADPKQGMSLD

[9] = target: DLG1_2, Q12959
[10] = target: NHERF4_1, Q86UT5-2
Chain of NHERF4_1, Q86UT5-2 (Q86UT5 other isoform, or with tags, fused parts or gaps): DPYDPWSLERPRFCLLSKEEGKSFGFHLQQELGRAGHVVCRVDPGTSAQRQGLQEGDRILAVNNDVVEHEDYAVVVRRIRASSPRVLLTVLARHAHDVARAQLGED

[11] = target: SCRIB_3, Q14160
Chain of SCRIB_3, Q14160 (Q14160 999-1103): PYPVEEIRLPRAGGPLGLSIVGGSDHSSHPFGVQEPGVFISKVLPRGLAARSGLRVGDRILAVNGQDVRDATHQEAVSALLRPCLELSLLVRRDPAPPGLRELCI

[12] = target: LNX1_3, Q8TBB1
Chain of LNX1_3, Q8TBB1 (Q8TBB1 500-596): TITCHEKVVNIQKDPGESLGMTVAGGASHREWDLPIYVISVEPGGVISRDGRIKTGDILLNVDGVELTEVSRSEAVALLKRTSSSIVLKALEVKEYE

[13] = target: T4, GRIP1_3, Q9Y3R0
T4 sequence (Q9Y3R0 247-346, limits assumed, looked up): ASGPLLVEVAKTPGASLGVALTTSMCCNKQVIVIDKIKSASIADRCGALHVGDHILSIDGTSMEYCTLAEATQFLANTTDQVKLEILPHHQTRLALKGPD

[14] = target: T5, GRIP1_4, Q9Y3R0
T5 sequence (Q9Y3R0 467-571, limits assumed, looked up): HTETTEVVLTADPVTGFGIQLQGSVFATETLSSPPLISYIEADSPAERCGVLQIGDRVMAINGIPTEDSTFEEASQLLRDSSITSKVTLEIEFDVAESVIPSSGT

[15] = target: T6, APBA2_1, Q99767
T6 sequence (Q99767 563-664, limits assumed, looked up): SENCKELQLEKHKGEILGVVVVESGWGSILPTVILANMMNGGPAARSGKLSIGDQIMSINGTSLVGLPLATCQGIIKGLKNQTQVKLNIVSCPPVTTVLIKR

[16] = target: PDZRN4_1, Q6ZMN7
Chain of PDZRN4_1, Q6ZMN7 (Q6ZMN7 213-318): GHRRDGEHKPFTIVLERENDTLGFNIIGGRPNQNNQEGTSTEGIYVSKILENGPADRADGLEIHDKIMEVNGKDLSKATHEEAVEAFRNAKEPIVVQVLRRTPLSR

[17] = target: T7, DFNB31_1, Q9P202
T7 sequence (Q9P202 135-233, limits assumed, looked up): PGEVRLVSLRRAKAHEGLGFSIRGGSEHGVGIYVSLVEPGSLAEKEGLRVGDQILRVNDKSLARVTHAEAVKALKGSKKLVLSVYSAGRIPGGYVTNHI

[18] = target: Inadl_9, Q8NI35
Chain of Inadl_9, Q8NI35 (Q8NI35 1530-1615): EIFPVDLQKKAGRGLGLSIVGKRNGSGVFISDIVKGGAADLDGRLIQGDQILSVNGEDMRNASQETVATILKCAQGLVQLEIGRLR

[19] = target: T8, GRIP1_7, Q9Y3R0
T8 sequence (Q9Y3R0 999-1096, limits assumed, looked up): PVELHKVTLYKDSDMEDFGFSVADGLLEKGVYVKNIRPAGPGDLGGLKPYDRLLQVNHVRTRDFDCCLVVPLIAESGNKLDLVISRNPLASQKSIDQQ

[20] = target: Inadl_1, Q8NI35
Chain of Inadl_1, Q8NI35 (Q8NI35 113-229): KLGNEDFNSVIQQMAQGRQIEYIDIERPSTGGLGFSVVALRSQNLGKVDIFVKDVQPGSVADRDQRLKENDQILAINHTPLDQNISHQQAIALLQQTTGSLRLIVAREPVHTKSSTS

[21] = target: T9, PDZD2_2, O15018
T9 sequence (O15018 329-429, limits assumed, looked up): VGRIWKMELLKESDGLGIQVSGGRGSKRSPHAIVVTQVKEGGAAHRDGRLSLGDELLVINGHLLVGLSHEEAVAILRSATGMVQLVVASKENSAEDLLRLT

[22] = target: Inadl_10, Q8NI35
Chain of Inadl_10, Q8NI35 (Q8NI35 1673-1763): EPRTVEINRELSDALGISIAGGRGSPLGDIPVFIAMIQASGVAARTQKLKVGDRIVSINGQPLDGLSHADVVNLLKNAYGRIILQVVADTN

[23] = target: T10, HTRA3, P83110
T10 sequence (P83110 354-453, limits assumed, looked up): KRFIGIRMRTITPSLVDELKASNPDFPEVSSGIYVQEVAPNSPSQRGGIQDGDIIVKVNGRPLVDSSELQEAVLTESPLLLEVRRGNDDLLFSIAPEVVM

[24] = target: AHNAK1, Q09666
Chain of AHNAK1, Q09666 (Q09666 4-100): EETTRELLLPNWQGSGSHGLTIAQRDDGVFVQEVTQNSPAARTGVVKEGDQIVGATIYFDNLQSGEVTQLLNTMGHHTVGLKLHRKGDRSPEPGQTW

[25] = target: T11, PCLO, Q9Y6V0
T11 sequence (Q9Y6V0 4491-4600, limits assumed, looked up): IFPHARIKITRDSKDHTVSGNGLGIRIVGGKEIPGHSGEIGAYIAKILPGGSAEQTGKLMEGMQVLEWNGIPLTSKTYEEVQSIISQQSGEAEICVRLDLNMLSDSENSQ

[26] = target: T12, DLG3_2, Q92796
T12 sequence (Q92796 221-321, limits assumed, looked up): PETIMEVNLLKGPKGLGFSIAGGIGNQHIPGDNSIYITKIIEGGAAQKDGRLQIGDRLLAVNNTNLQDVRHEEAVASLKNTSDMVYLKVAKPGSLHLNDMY

[27] = plain residues with an end cap or a label only (N-terminal biotin on a linker: ado-ado)
[28] = plain residues with an end cap or a label only (N-terminal biotin on a linker: ttds)

Chain of GORASP1, Q9BQQ3 (Q9BQQ3 1-208): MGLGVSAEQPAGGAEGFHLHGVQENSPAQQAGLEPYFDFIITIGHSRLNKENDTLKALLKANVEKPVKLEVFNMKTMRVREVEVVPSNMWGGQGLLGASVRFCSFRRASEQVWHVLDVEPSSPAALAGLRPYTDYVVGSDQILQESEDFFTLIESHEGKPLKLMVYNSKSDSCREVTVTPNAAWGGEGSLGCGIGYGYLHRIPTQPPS

pKd [1, 27]: below the threshold
pKd [2, 27]: 3.87
pKd [3, 27]: 4.17
pKd [4, 27]: below the threshold
pKd [5, 27]: below the threshold
pKd [6, 27]: 3.84
pKd [7, 27]: below the threshold
pKd [8, 27]: 4.24
pKd [9, 27]: 4.4
pKd [10, 27]: 4.53
pKd [11, 27]: 3.59
pKd [12, 27]: 3.5
pKd [13, 27]: below the threshold
pKd [14, 27]: below the threshold
pKd [15, 27]: below the threshold
pKd [16, 27]: below the threshold
pKd [17, 27]: 4.18
pKd [18, 27]: below the threshold
pKd [19, 27]: below the threshold
pKd [20, 27]: below the threshold
pKd [21, 27]: 4.12
pKd [22, 27]: 3.78
pKd [23, 27]: below the threshold
pKd [24, 27]: below the threshold
pKd [25, 27]: below the threshold
pKd [26, 27]: 4.02
Binder: TETASVCTKV [SLC23A1, Q9UHI7]

pKd [1, 28]: below the threshold
pKd [2, 28]: 3.9
pKd [3, 28]: 4.92
pKd [4, 28]: 3.95
pKd [5, 28]: below the threshold
pKd [6, 28]: 4.16
pKd [7, 28]: below the threshold
pKd [8, 28]: below the threshold
pKd [9, 28]: 4.85
pKd [10, 28]: below the threshold
pKd [11, 28]: 4.67
pKd [12, 28]: below the threshold
pKd [13, 28]: below the threshold
pKd [14, 28]: below the threshold
pKd [15, 28]: below the threshold
pKd [16, 28]: 3.96
pKd [17, 28]: 4.24
pKd [18, 28]: 3.5
pKd [19, 28]: below the threshold
pKd [20, 28]: below the threshold
pKd [21, 28]: 5.04
pKd [22, 28]: below the threshold
pKd [23, 28]: 3.76
pKd [24, 28]: below the threshold
pKd [25, 28]: below the threshold
pKd [26, 28]: 4.15
Binder: QFQYAKESYI [TAGAP, Q8N103]

Further lines, the binder ahead of its results:

Binder: FVHPILQSAV [PRKCA, P17252]
pKd [1, 27]: below the threshold
pKd [2, 27]: below the threshold
pKd [3, 27]: 4.32
pKd [4, 27]: 3.74
pKd [5, 27]: below the threshold
pKd [6, 27]: 3.81
pKd [7, 27]: below the threshold
pKd [8, 27]: below the threshold
pKd [9, 27]: 4.52
pKd [10, 27]: 3.78
pKd [11, 27]: 4.3
pKd [12, 27]: below the threshold
pKd [13, 27]: below the threshold
pKd [14, 27]: below the threshold
pKd [15, 27]: below the threshold
pKd [16, 27]: 3.92
pKd [17, 27]: 4.29
pKd [18, 27]: below the threshold
pKd [19, 27]: below the threshold
pKd [20, 27]: below the threshold
pKd [21, 27]: 5.1
pKd [22, 27]: below the threshold
pKd [23, 27]: below the threshold
pKd [24, 27]: below the threshold
pKd [25, 27]: below the threshold
pKd [26, 27]: 4.26

Binder: LCALPKVTTV [AGMAT, Q9BSE5]
pKd [1, 28]: below the threshold
pKd [2, 28]: 4.11
pKd [3, 28]: 4.73
pKd [4, 28]: 4.64
pKd [5, 28]: 3.94
pKd [6, 28]: 4.97
pKd [7, 28]: below the threshold
pKd [8, 28]: below the threshold
pKd [9, 28]: 5.87
pKd [10, 28]: below the threshold
pKd [11, 28]: 4.24
pKd [12, 28]: 3.61
pKd [13, 28]: below the threshold
pKd [14, 28]: below the threshold
pKd [15, 28]: below the threshold
pKd [16, 28]: 3.75
pKd [17, 28]: below the threshold
pKd [18, 28]: 3.52
pKd [19, 28]: below the threshold
pKd [20, 28]: 3.57
pKd [21, 28]: 4.44
pKd [22, 28]: below the threshold
pKd [23, 28]: 3.71
pKd [24, 28]: below the threshold
pKd [25, 28]: below the threshold
pKd [26, 28]: 5.31
